Source: US20220298218A1 (ANTAG THERAPEUTICS, published 2022)
*1 amine or outer side, *2 acyl side, *3 side chain or, on linkers, in order; H or OH if unused. Where no end group is shown, it is not given here. Side-chain parts run from the residue outwards. [ ]: non-standard residue; d: D form. The star is where a group is joined. C18 diacid = O=C(O)CCCCCCCCCCCCCCCCC(=O)*; γGlu = O=C(O)[C@H](CCC(=O)[*:2])N[*:1]; Nle = CCCC[C@H](N)C(=O)O; AEEA = NCCOCCOCC(=O)O

Biological target: T1, human GIP receptor (human, UniProt P48546 22-466)
T1 sequence (looked up): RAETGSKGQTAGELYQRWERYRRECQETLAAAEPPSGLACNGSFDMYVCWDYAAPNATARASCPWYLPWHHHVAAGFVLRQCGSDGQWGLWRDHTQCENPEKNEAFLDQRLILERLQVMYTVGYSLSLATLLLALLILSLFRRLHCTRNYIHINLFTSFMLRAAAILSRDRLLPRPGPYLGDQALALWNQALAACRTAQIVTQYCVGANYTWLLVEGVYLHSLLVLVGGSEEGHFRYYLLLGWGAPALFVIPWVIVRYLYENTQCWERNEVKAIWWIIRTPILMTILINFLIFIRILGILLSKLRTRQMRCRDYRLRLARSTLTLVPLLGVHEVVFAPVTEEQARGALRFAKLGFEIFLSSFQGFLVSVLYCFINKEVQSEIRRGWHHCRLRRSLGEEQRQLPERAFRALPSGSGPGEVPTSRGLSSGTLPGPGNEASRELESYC
Assay: cell-based or functional assay

Binder | cAMP agonism % Emax [%] | cAMP antagonism [nM] | cAMP antagonism % inhib [%] | cAMP antagonism pIC50
EGTFISEYSIA[Nle]EKIK([AEEA-AEEA-γGlu-C18 diacid])QQEFVEWLLAQKPSSGAPPPS-OH (N-terminus assumed; SMILES CCCC[C@H](NC(=O)[C@H](C)NC(=O)[C@@H](NC(=O)[C@H](CO)NC(=O)[C@H](Cc1ccc(O)cc1)NC(=O)[C@H](CCC(=O)O)NC(=O)[C@H](CO)NC(=O)[C@@H](NC(=O)[C@H](Cc1ccccc1)NC(=O)[C@@H](NC(=O)CNC(=O)[C@@H](N)CCC(=O)O)[C@@H](C)O)[C@@H](C)CC)[C@@H](C)CC)C(=O)N[C@@H](CCC(=O)O)C(=O)N[C@@H](CCCCN)C(=O)N[C@H](C(=O)N[C@@H](CCCCNC(=O)COCCOCCNC(=O)COCCOCCNC(=O)CC[C@H](NC(=O)CCCCCCCCCCCCCCCCC(=O)O)C(=O)O)C(=O)N[C@@H](CCC(N)=O)C(=O)N[C@@H](CCC(N)=O)C(=O)N[C@@H](CCC(=O)O)C(=O)N[C@@H](Cc1ccccc1)C(=O)N[C@H](C(=O)N[C@@H](CCC(=O)O)C(=O)N[C@@H](Cc1c[nH]c2ccccc12)C(=O)N[C@@H](CC(C)C)C(=O)N[C@@H](CC(C)C)C(=O)N[C@@H](C)C(=O)N[C@@H](CCC(N)=O)C(=O)N[C@@H](CCCCN)C(=O)N1CCC[C@H]1C(=O)N[C@@H](CO)C(=O)N[C@@H](CO)C(=O)NCC(=O)N[C@@H](C)C(=O)N1CCC[C@H]1C(=O)N1CCC[C@H]1C(=O)N1CCC[C@H]1C(=O)N[C@@H](CO)C(=O)O)C(C)C)[C@@H](C)CC) [AT694] | 4 | 1.47 | 88 | 8.8
EGTFISEYSIALEKIK([AEEA-AEEA-γGlu-C18 diacid])QQEFVEWLLAQKPSSGAPPPS-OH (N-terminus assumed; SMILES CC[C@H](C)[C@H](NC(=O)[C@H](CO)NC(=O)[C@H](Cc1ccc(O)cc1)NC(=O)[C@H](CCC(=O)O)NC(=O)[C@H](CO)NC(=O)[C@@H](NC(=O)[C@H](Cc1ccccc1)NC(=O)[C@@H](NC(=O)CNC(=O)[C@@H](N)CCC(=O)O)[C@@H](C)O)[C@@H](C)CC)C(=O)N[C@@H](C)C(=O)N[C@@H](CC(C)C)C(=O)N[C@@H](CCC(=O)O)C(=O)N[C@@H](CCCCN)C(=O)N[C@H](C(=O)N[C@@H](CCCCNC(=O)COCCOCCNC(=O)COCCOCCNC(=O)CC[C@H](NC(=O)CCCCCCCCCCCCCCCCC(=O)O)C(=O)O)C(=O)N[C@@H](CCC(N)=O)C(=O)N[C@@H](CCC(N)=O)C(=O)N[C@@H](CCC(=O)O)C(=O)N[C@@H](Cc1ccccc1)C(=O)N[C@H](C(=O)N[C@@H](CCC(=O)O)C(=O)N[C@@H](Cc1c[nH]c2ccccc12)C(=O)N[C@@H](CC(C)C)C(=O)N[C@@H](CC(C)C)C(=O)N[C@@H](C)C(=O)N[C@@H](CCC(N)=O)C(=O)N[C@@H](CCCCN)C(=O)N1CCC[C@H]1C(=O)N[C@@H](CO)C(=O)N[C@@H](CO)C(=O)NCC(=O)N[C@@H](C)C(=O)N1CCC[C@H]1C(=O)N1CCC[C@H]1C(=O)N1CCC[C@H]1C(=O)N[C@@H](CO)C(=O)O)C(C)C)[C@@H](C)CC) [AT693] | 0 | 1.26 | 96 | 8.9
